Source: patent publication US6365372 (SAINT LOUIS UNIVERSITY, dated 2002)

Legend:
[1] = biological target: T1, Gal-CBP280-460 chimera (yeast, UniProt P04386 1-147; P45481 280-460); experiment: cell-based or functional assay
[2] = biological target: Gal-CBP227-460 chimera (yeast, UniProt P04386 1-147; P45481 227-460); experiment: cell-based or functional assay
[3] = biological target: T1, Gal-CBP280-460 chimera; experiment: mammalian two-hybrid assay in HeLa cells

Binder	transcription of the reporter gene pGal-CAT (relative CAT activity) [1]	ability of the Gal-CBP227-460 chimera to activate transcription of the reporter gene pGal-CAT [2]	binding result [3]
VP16-clone 11 chimera (other) MTAPPTDVSLGDELHLDGEDVAMAHADALDDFDLDMLGDGDSPGPGFTPHDSAPYGALDMADFEFEQMFTDALGIDEYGGGTSLASASPVPAPTPVLAPSSTQTMLPAPVPSPLPSPASTQTLALAPALAPTLGGSSPSQTLSLGTGNPQGPFPTQTLSLTPASSLVPTPAQTLSLAPGPPLGPTQTLSLAPAPPLAPASPVGPAPAHTLTLAPASSSASLLAPASVQTLTLSPAPVPTLGPAAAQTLALAPASTQSPASQASSLVVSASGAAPLPVTMVSRLPVSKDEPDTLTLRSGPPSPPSTATSFGGPRPRRQPPPPPRSPFYLDSLEEKRKRQRSERLERIFQLSEAHGALAPVYGTEVLDFCTLPQPVASPIGPRSPGPSHPTFWTYTEAAHRA	~20 fold	~1.5 fold	
VP16 activation domain (other, range 412-491; Control without the clone 11 part; also called pVP16) MTAPPTDVSLGDELHLDGEDVAMAHADALDDFDLDMLGDGDSPGPGFTPHDSAPYGALDMADFEFEQMFTDALGIDEYGG			no binding
